Tested on: PP2A-B55α
Assay: Single alanine mutational scan, YFP-tagged interactors immunoprecipitated from HeLa cells, Western blot
Format: binding, human
Experimental: Standard cloning techniques were used throughout. Point mutations were introduced by whole plasmid polymerase chain reaction (PCR). All constructs were fully sequenced. Synthetic DNA was purchased from GeneArt, Life Technologies and cloned into pcDNA5/FRT/TO (Invitrogen) expression vector containing YFP, resulting in the indicated YFP fusion proteins. These constructs were transiently transfected into HeLa cells 24 hours before harvesting cells. Cells were lysed in lysis buffer [50 mM tris-HCl (pH 7.5), 50 mM NaCl, 1 mM EDTA, 1 mM […], and 0.1% NP-40]. Complexes were immunoprecipitated at 4°C in lysis buffer with green fluorescent protein (GFP)–Trap (ChromoTek) and washed in lysis buffer. Precipitated protein complexes were washed three times in lysis buffer, eluted in 2× SDS sample buffer, and subjected to Western blotting or MS as indicated.

[1] = single alanine mutant of YFP-tagged RBM7
[2] = single alanine mutant of YFP-tagged CDCA4

B1: RBM7 M147: RBM7, M147 to alanine (protein, UniProt Q9Y580 2-266, looked up, variant M147A)
RNA-binding protein 7: GAAAAEADRTLFVGNLETKVTEELLFELFHQAGPVIKVKIPKDKDGKPKQFAFVNFKHEVSVPYAMNLLNGIKLYGRPIKIQFRSGSSHAPQDVSLSYPQHHVGNSSPTSTSPSRYERTMDNMTSSAQIIQRSFSSPENFQRQAVANSALRQMSYGGKFGSSPLDQSGFSPSVQSHSHSFNQSSSSQWRQGTPSSQRKVRMNSYPYLADRHYSREQRYTDHGSDHHYRGKRDDFFYEDRNHDDWSHDYDNRRDSSRDGKWRSSRH
With B1 the Experimental % binding [1] was 9%.

B2: RBM7 Q142: RBM7, Q142 to alanine (protein, UniProt Q9Y580 2-266, looked up, variant Q142A)
RNA-binding protein 7: GAAAAEADRTLFVGNLETKVTEELLFELFHQAGPVIKVKIPKDKDGKPKQFAFVNFKHEVSVPYAMNLLNGIKLYGRPIKIQFRSGSSHAPQDVSLSYPQHHVGNSSPTSTSPSRYERTMDNMTSSAQIIQRSFSSPENFARQAVMNSALRQMSYGGKFGSSPLDQSGFSPSVQSHSHSFNQSSSSQWRQGTPSSQRKVRMNSYPYLADRHYSREQRYTDHGSDHHYRGKRDDFFYEDRNHDDWSHDYDNRRDSSRDGKWRSSRH
B2 was tested, and the Experimental % binding [1] was 67%.

B3: RBM7 F141: RBM7, F141 to alanine (protein, UniProt Q9Y580 2-266, looked up, variant F141A)
RNA-binding protein 7: GAAAAEADRTLFVGNLETKVTEELLFELFHQAGPVIKVKIPKDKDGKPKQFAFVNFKHEVSVPYAMNLLNGIKLYGRPIKIQFRSGSSHAPQDVSLSYPQHHVGNSSPTSTSPSRYERTMDNMTSSAQIIQRSFSSPENAQRQAVMNSALRQMSYGGKFGSSPLDQSGFSPSVQSHSHSFNQSSSSQWRQGTPSSQRKVRMNSYPYLADRHYSREQRYTDHGSDHHYRGKRDDFFYEDRNHDDWSHDYDNRRDSSRDGKWRSSRH
For B3, the Experimental % binding [1] was 4%.

B4: RBM7 N148: RBM7, N148 to alanine (protein, UniProt Q9Y580 2-266, looked up, variant N148A)
RNA-binding protein 7: GAAAAEADRTLFVGNLETKVTEELLFELFHQAGPVIKVKIPKDKDGKPKQFAFVNFKHEVSVPYAMNLLNGIKLYGRPIKIQFRSGSSHAPQDVSLSYPQHHVGNSSPTSTSPSRYERTMDNMTSSAQIIQRSFSSPENFQRQAVMASALRQMSYGGKFGSSPLDQSGFSPSVQSHSHSFNQSSSSQWRQGTPSSQRKVRMNSYPYLADRHYSREQRYTDHGSDHHYRGKRDDFFYEDRNHDDWSHDYDNRRDSSRDGKWRSSRH
For B4, the Experimental % binding [1] was 29%.

B5: RBM7 S149: RBM7, S149 to alanine (protein, UniProt Q9Y580 2-266, looked up, variant S149A)
RNA-binding protein 7: GAAAAEADRTLFVGNLETKVTEELLFELFHQAGPVIKVKIPKDKDGKPKQFAFVNFKHEVSVPYAMNLLNGIKLYGRPIKIQFRSGSSHAPQDVSLSYPQHHVGNSSPTSTSPSRYERTMDNMTSSAQIIQRSFSSPENFQRQAVMNAALRQMSYGGKFGSSPLDQSGFSPSVQSHSHSFNQSSSSQWRQGTPSSQRKVRMNSYPYLADRHYSREQRYTDHGSDHHYRGKRDDFFYEDRNHDDWSHDYDNRRDSSRDGKWRSSRH
B5 gave an Experimental % binding [1] of 109%.

B6: RBM7 N140: RBM7, N140 to alanine (protein, UniProt Q9Y580 2-266, looked up, variant N140A)
RNA-binding protein 7: GAAAAEADRTLFVGNLETKVTEELLFELFHQAGPVIKVKIPKDKDGKPKQFAFVNFKHEVSVPYAMNLLNGIKLYGRPIKIQFRSGSSHAPQDVSLSYPQHHVGNSSPTSTSPSRYERTMDNMTSSAQIIQRSFSSPEAFQRQAVMNSALRQMSYGGKFGSSPLDQSGFSPSVQSHSHSFNQSSSSQWRQGTPSSQRKVRMNSYPYLADRHYSREQRYTDHGSDHHYRGKRDDFFYEDRNHDDWSHDYDNRRDSSRDGKWRSSRH
In the case of B6, the Experimental % binding [1] is reported as 5%.

B7: RBM7 R143: RBM7, R143 to alanine (protein, UniProt Q9Y580 2-266, looked up, variant R143A)
RNA-binding protein 7: GAAAAEADRTLFVGNLETKVTEELLFELFHQAGPVIKVKIPKDKDGKPKQFAFVNFKHEVSVPYAMNLLNGIKLYGRPIKIQFRSGSSHAPQDVSLSYPQHHVGNSSPTSTSPSRYERTMDNMTSSAQIIQRSFSSPENFQAQAVMNSALRQMSYGGKFGSSPLDQSGFSPSVQSHSHSFNQSSSSQWRQGTPSSQRKVRMNSYPYLADRHYSREQRYTDHGSDHHYRGKRDDFFYEDRNHDDWSHDYDNRRDSSRDGKWRSSRH
B7 was tested, and the Experimental % binding [1] was 5%.

B8: RBM7 Q153: RBM7, Q153 to alanine (protein, UniProt Q9Y580 2-266, looked up, variant Q153A)
RNA-binding protein 7: GAAAAEADRTLFVGNLETKVTEELLFELFHQAGPVIKVKIPKDKDGKPKQFAFVNFKHEVSVPYAMNLLNGIKLYGRPIKIQFRSGSSHAPQDVSLSYPQHHVGNSSPTSTSPSRYERTMDNMTSSAQIIQRSFSSPENFQRQAVMNSALRAMSYGGKFGSSPLDQSGFSPSVQSHSHSFNQSSSSQWRQGTPSSQRKVRMNSYPYLADRHYSREQRYTDHGSDHHYRGKRDDFFYEDRNHDDWSHDYDNRRDSSRDGKWRSSRH
B8 was tested, and the Experimental % binding [1] was 131%.

B9: RBM7 R152: RBM7, R152 to alanine (protein, UniProt Q9Y580 2-266, looked up, variant R152A)
RNA-binding protein 7: GAAAAEADRTLFVGNLETKVTEELLFELFHQAGPVIKVKIPKDKDGKPKQFAFVNFKHEVSVPYAMNLLNGIKLYGRPIKIQFRSGSSHAPQDVSLSYPQHHVGNSSPTSTSPSRYERTMDNMTSSAQIIQRSFSSPENFQRQAVMNSALAQMSYGGKFGSSPLDQSGFSPSVQSHSHSFNQSSSSQWRQGTPSSQRKVRMNSYPYLADRHYSREQRYTDHGSDHHYRGKRDDFFYEDRNHDDWSHDYDNRRDSSRDGKWRSSRH
B9 was tested, and the Experimental % binding [1] was 62%.

B10: RBM7 E139: RBM7, E139 to alanine (protein, UniProt Q9Y580 2-266, looked up, variant E139A)
RNA-binding protein 7: GAAAAEADRTLFVGNLETKVTEELLFELFHQAGPVIKVKIPKDKDGKPKQFAFVNFKHEVSVPYAMNLLNGIKLYGRPIKIQFRSGSSHAPQDVSLSYPQHHVGNSSPTSTSPSRYERTMDNMTSSAQIIQRSFSSPANFQRQAVMNSALRQMSYGGKFGSSPLDQSGFSPSVQSHSHSFNQSSSSQWRQGTPSSQRKVRMNSYPYLADRHYSREQRYTDHGSDHHYRGKRDDFFYEDRNHDDWSHDYDNRRDSSRDGKWRSSRH
In the case of B10, the Experimental % binding [1] is reported as 77%.

B11: RBM7 P138: RBM7, P138 to alanine (protein, UniProt Q9Y580 2-266, looked up, variant P138A)
RNA-binding protein 7: GAAAAEADRTLFVGNLETKVTEELLFELFHQAGPVIKVKIPKDKDGKPKQFAFVNFKHEVSVPYAMNLLNGIKLYGRPIKIQFRSGSSHAPQDVSLSYPQHHVGNSSPTSTSPSRYERTMDNMTSSAQIIQRSFSSAENFQRQAVMNSALRQMSYGGKFGSSPLDQSGFSPSVQSHSHSFNQSSSSQWRQGTPSSQRKVRMNSYPYLADRHYSREQRYTDHGSDHHYRGKRDDFFYEDRNHDDWSHDYDNRRDSSRDGKWRSSRH
In the case of B11, the Experimental % binding [1] is reported as 92%.

B12: RBM7 V146: RBM7, V146 to alanine (protein, UniProt Q9Y580 2-266, looked up, variant V146A)
RNA-binding protein 7: GAAAAEADRTLFVGNLETKVTEELLFELFHQAGPVIKVKIPKDKDGKPKQFAFVNFKHEVSVPYAMNLLNGIKLYGRPIKIQFRSGSSHAPQDVSLSYPQHHVGNSSPTSTSPSRYERTMDNMTSSAQIIQRSFSSPENFQRQAAMNSALRQMSYGGKFGSSPLDQSGFSPSVQSHSHSFNQSSSSQWRQGTPSSQRKVRMNSYPYLADRHYSREQRYTDHGSDHHYRGKRDDFFYEDRNHDDWSHDYDNRRDSSRDGKWRSSRH
With B12 the Experimental % binding [1] was 7%.

B13: RBM7 L151: RBM7, L151 to alanine (protein, UniProt Q9Y580 2-266, looked up, variant L151A)
RNA-binding protein 7: GAAAAEADRTLFVGNLETKVTEELLFELFHQAGPVIKVKIPKDKDGKPKQFAFVNFKHEVSVPYAMNLLNGIKLYGRPIKIQFRSGSSHAPQDVSLSYPQHHVGNSSPTSTSPSRYERTMDNMTSSAQIIQRSFSSPENFQRQAVMNSAARQMSYGGKFGSSPLDQSGFSPSVQSHSHSFNQSSSSQWRQGTPSSQRKVRMNSYPYLADRHYSREQRYTDHGSDHHYRGKRDDFFYEDRNHDDWSHDYDNRRDSSRDGKWRSSRH
B13 was tested, and the Experimental % binding [1] was 47%.

B14: CDCA4 K44: CDCA4, K44 to alanine (protein, UniProt Q9BXL8 1-241, looked up, variant K44A)
Cell division …: MFARGLKRKCVGHEEDVEGALAGLKTVSSYSLQRQSLLDMSLVALQLCHMLVEPNLCRSVLIANTVRQIQEEMTQDGTWRTVAPQAAERAPLDRLVSTEILCRAAWGQEGAHPAPGLGDGHTQGPVSDLCPVTSAQAPRHLQSSAWEMDGPRENRGSFHKSLDQIFETLETKNPSCMEELFSDVDSPYYDLDTVLTGMMGGARPGPCEGLEGLAPATPGPSSSCKSDLGELDHVVEILVET
For B14, the Experimental % binding [2] was 22%.

B15: CDCA4 Q46: CDCA4, Q46 to alanine (protein, UniProt Q9BXL8 1-241, looked up, variant Q46A)
Cell division …: MFARGLKRKCVGHEEDVEGALAGLKTVSSYSLQRQSLLDMSLVKLALCHMLVEPNLCRSVLIANTVRQIQEEMTQDGTWRTVAPQAAERAPLDRLVSTEILCRAAWGQEGAHPAPGLGDGHTQGPVSDLCPVTSAQAPRHLQSSAWEMDGPRENRGSFHKSLDQIFETLETKNPSCMEELFSDVDSPYYDLDTVLTGMMGGARPGPCEGLEGLAPATPGPSSSCKSDLGELDHVVEILVET
In the case of B15, the Experimental % binding [2] is reported as 61%.

B16: CDCA4 V52: CDCA4, V52 to alanine (protein, UniProt Q9BXL8 1-241, looked up, variant V52A)
Cell division …: MFARGLKRKCVGHEEDVEGALAGLKTVSSYSLQRQSLLDMSLVKLQLCHMLAEPNLCRSVLIANTVRQIQEEMTQDGTWRTVAPQAAERAPLDRLVSTEILCRAAWGQEGAHPAPGLGDGHTQGPVSDLCPVTSAQAPRHLQSSAWEMDGPRENRGSFHKSLDQIFETLETKNPSCMEELFSDVDSPYYDLDTVLTGMMGGARPGPCEGLEGLAPATPGPSSSCKSDLGELDHVVEILVET
With B16 the Experimental % binding [2] was 82%.

B17: CDCA4 L45: CDCA4, L45 to alanine (protein, UniProt Q9BXL8 1-241, looked up, variant L45A)
Cell division …: MFARGLKRKCVGHEEDVEGALAGLKTVSSYSLQRQSLLDMSLVKAQLCHMLVEPNLCRSVLIANTVRQIQEEMTQDGTWRTVAPQAAERAPLDRLVSTEILCRAAWGQEGAHPAPGLGDGHTQGPVSDLCPVTSAQAPRHLQSSAWEMDGPRENRGSFHKSLDQIFETLETKNPSCMEELFSDVDSPYYDLDTVLTGMMGGARPGPCEGLEGLAPATPGPSSSCKSDLGELDHVVEILVET
B17 was tested, and the Experimental % binding [2] was 86%.

Source: PMC11446282
